Assay results as given in patent US20220153832A1 (PIONYR IMMUNOTHERAPEUTICS, published 2022).
Where a chain is given by its changes, count along the chain named. One block for each binder: values may come before it.

Assays:
[1] = target: T1, recombinant cynomolgus MARCO protein (cynomolgus, UniProt A0A2K5X0Z2 65-519); assay: Biacore (SPR), recombinant cyno MARCO
T1 construct: Construct not described; also called cyno MARCO; cynoMARCO
T1 sequence: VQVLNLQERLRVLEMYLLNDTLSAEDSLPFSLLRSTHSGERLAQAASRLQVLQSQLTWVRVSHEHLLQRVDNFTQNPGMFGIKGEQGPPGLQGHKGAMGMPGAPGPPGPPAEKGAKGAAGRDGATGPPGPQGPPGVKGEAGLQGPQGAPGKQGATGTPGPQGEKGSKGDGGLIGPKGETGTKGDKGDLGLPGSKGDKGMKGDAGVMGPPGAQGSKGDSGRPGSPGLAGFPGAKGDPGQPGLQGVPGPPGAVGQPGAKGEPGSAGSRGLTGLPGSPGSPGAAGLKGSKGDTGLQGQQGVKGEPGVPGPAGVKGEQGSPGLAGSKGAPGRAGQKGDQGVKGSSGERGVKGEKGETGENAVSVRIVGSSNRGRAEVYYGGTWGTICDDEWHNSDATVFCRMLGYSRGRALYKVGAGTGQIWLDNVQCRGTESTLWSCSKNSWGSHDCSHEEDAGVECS

[2] = target: T2, N-terminally polyhistidine tagged human MARCO ECD (147-520), recombinant (human, UniProt Q9UEW3 147-520); assay: Biacore (SPR), recombinant human MARCO
T2 construct: also called PI-RG-3000; recombinant human MARCO; not shown: N-terminal polyhistidine tag
T2 sequence: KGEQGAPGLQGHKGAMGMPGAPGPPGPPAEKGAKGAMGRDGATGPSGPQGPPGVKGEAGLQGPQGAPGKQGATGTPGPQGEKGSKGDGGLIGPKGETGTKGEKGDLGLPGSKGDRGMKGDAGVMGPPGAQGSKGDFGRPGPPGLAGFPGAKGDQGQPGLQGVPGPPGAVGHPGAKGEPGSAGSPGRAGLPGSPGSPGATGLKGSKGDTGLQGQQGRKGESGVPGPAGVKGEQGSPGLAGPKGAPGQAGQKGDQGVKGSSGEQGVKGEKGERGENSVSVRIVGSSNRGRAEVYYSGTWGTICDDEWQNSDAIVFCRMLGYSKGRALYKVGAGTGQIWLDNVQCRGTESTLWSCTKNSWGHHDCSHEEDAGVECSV
In short: (§1)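 On a CM4 chip, anti-mouse Fc mAb was amine-coupled to a 4500 RU target and used to capture the antibodies. Their binding kinetics and affinity for N-terminally His-tagged human MARCO extracellular domain (147-520) were then measured by multi-cycle surface plasmon resonance on a Biacore T200. This was done at 25° C in 10 mM HEPES pH 7.4, 150 mM NaCl, 3 mM EDTA, 0.05% surfactant P20, with 0.625–10 nM injections, 90 s association and 600 s dissociation, and fitting in BIAevaluation 3.1.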

[3] = target: T2, N-terminally polyhistidine tagged human …; assay: Biacore (SPR), binding affinity to human MARCO
In short: as §1

[4] = target: T3, Human Macrophage Receptor with Collagenous Structure (MARCO), full length, on cells (human, UniProt Q9UEW3 1-520); assay: flow cytometry, cells overexpressing human MARCO; hu (first of hu/cyn)
T3 construct: the cell type is named under assay; also called huMARCO; HuMARCO
T3 sequence: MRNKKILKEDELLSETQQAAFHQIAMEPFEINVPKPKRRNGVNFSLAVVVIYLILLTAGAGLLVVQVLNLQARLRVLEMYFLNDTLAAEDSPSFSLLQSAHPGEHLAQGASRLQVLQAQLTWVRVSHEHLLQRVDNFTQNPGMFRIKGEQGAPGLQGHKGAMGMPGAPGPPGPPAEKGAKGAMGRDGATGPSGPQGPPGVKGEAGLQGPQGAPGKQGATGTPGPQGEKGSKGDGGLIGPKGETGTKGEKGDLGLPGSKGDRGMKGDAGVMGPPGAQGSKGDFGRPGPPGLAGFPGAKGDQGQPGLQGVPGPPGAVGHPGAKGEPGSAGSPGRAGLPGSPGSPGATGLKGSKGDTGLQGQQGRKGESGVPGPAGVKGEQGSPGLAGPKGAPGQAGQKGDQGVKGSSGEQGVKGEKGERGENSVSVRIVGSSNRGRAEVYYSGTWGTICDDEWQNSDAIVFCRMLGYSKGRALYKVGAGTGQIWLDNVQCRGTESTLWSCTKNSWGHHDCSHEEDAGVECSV

[5] = target: T4, Cynomolgus MARCO, full length, on cells (cynomolgus, UniProt A0A2K5X0Z2 1-519); assay: flow cytometry, cells overexpressing cyno MARCO; cyn (second of hu/cyn)
T4 construct: whole, on cells; also called cyno MARCO; CyMARCO
T4 sequence: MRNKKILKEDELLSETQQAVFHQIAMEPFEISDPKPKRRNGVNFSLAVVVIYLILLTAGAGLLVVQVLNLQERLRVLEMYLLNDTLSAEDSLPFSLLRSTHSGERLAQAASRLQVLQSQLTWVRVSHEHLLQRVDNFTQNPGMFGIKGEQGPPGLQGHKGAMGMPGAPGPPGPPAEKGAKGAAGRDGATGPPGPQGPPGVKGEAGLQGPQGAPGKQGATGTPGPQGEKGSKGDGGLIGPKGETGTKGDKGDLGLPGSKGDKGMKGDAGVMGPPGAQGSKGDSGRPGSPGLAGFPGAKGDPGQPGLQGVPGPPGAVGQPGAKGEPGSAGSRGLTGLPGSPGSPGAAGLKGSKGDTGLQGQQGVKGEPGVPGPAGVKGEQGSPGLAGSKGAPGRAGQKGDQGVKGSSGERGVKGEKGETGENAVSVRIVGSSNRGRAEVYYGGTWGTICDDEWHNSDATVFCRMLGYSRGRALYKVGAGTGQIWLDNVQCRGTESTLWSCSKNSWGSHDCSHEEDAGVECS

[6] = target: T5, hVar3 (RG3036) (human, UniProt Q9UEW3 147-520); assay: ELISA on hVar3
T5 construct: Human MARCO His-CLD-SRCR with Q452D, Y472S and K473S (already in the entry); also called recombinant human SRCR MARCO hVar3 protein

[7] = target: T5, hVar3 (RG3036); assay: ELISA on recombinant hVar3 protein, A450
[8] = target: T4, Cynomolgus MARCO, full length, on cells; assay: flow cytometry, 293T CyMARCO cells
In short: (§2)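 HEK293T cells expressing human or cynomolgus MARCO were tested for antibody binding by flow cytometry. At 100,000 cells/well, Zombie NIR-stained cells received an 8-point three-fold dilution of antibody from 100 nM in D-PBS/2% FBS/2 mM EDTA for 1 hr on ice, then APC goat anti-mouse IgG for 30 min on ice. Geometric mean fluorescence intensities were analysed in FlowJo and Prism.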

[9] = target: T3, Human Macrophage Receptor with …; assay: flow cytometry, 293T HuMARCO cells
In short: as §2

Kd [1]: 1.1 nM
Kd [2]: 0.78 nM
koff [2]: 0.000371 s⁻¹
Kd [3]: 0.78 nM
EC50 [4]: 0.821 nM
EC50 [5]: 1.07 nM
B1: PI-3046-AB (antibody, human IgG4 S228P, kappa)
heavy: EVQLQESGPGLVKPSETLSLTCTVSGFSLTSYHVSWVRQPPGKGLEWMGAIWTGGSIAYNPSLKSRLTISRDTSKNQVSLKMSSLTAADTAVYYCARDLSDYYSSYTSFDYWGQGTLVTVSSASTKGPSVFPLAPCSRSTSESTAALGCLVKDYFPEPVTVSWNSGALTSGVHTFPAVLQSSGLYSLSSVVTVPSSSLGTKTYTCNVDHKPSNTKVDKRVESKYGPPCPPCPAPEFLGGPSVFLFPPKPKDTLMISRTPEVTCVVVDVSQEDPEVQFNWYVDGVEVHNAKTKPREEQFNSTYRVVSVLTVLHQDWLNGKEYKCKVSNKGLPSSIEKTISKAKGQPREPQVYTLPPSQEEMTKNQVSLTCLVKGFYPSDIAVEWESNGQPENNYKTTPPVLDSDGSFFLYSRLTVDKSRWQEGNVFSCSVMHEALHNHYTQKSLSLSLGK
light: DIQMTQSPSSLSASVGDRVTITCRASEGISNDLAWYQQKPGKAPKLLIYAASRLQSGVPSRFSGSGSGTDYTLTISSMQPEDFATYYCQQSYKYPLTFGQGTKLEIKRTVAAPSVFIFPPSDEQLKSGTASVVCLLNNFYPREAKVQWKVDNALQSGNSQESVTEQDSKDSTYSLSSTLTLSKADYEKHKVYACEVTHQGLSSPVTKSFNRGEC

Kd [1]: 0.79 nM
Kd [2]: 0.72 nM
koff [2]: 0.000337 s⁻¹
Kd [3]: 0.72 nM
EC50 [4]: 0.796 nM
EC50 [5]: 1.39 nM
B2: PI-3047-AB (antibody, human IgG4 S228P, kappa)
heavy: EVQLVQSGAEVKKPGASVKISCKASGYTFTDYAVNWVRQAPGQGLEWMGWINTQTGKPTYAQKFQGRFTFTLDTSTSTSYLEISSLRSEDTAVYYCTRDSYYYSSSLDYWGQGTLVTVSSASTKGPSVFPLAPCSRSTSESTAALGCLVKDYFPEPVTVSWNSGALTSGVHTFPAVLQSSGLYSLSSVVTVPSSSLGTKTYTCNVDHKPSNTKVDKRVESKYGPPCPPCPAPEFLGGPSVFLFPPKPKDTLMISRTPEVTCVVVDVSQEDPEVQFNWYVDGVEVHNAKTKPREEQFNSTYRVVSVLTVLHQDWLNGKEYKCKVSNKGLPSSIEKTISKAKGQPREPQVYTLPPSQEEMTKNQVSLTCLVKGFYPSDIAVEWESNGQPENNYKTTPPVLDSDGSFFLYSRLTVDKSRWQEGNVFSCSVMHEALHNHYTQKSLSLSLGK
light: B1 light with E27A, S56D, Y71F, L96W
notes: Humanized PI-HX-3011, hIgG4

Kd [1]: 1.81 nM
Kd [2]: 1.05 nM
koff [2]: 0.000386 s⁻¹
Kd [3]: 1.05 nM
EC50 [4]: 0.721 nM
EC50 [5]: 2.39 nM
B3: PI-3048-AB (antibody, human IgG4 S228P, kappa)
heavy: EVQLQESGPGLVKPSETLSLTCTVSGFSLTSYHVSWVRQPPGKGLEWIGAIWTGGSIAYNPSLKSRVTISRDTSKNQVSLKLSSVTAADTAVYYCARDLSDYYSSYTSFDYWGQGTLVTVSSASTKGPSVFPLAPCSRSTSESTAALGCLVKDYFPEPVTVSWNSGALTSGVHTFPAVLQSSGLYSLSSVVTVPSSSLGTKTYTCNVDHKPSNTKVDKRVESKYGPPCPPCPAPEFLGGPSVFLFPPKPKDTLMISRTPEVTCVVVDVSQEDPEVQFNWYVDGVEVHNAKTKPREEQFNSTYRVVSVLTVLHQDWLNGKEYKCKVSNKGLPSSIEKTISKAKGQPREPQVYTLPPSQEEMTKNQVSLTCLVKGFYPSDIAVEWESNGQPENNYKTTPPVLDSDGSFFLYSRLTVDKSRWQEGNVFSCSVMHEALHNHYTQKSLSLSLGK
light: B1 light with S56D, M78L

binding result [6]: no binding
B4: PI-3020-AB (antibody, human IgG4, kappa)
heavy: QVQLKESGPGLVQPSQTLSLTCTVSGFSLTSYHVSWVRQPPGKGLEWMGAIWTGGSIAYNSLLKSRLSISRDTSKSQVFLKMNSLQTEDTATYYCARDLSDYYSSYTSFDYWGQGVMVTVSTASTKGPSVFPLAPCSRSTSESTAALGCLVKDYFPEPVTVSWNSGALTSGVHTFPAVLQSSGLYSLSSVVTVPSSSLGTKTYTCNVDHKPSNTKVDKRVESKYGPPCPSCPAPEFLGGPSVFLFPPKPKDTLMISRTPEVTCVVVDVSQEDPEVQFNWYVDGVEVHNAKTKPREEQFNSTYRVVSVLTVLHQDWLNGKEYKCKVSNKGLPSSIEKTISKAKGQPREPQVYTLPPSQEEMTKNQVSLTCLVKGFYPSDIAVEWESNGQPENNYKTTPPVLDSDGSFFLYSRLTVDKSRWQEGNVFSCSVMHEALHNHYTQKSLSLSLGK
light: DIQMTQSPASLSTSLGETVSIECLASEGISNDLAWYQQKSGKSPQLLIYAASRLQDGVPSRFSGSGSGTRYSLKISGMQPEDEADYFCQQSYKYPLTFGSGTKLEIKRTVAAPSVFIFPPSDEQLKSGTASVVCLLNNFYPREAKVQWKVDNALQSGNSQESVTEQDSKDSTYSLSSTLTLSKADYEKHKVYACEVTHQGLSSPVTKSFNRGEC

binding result [7]: binds
B5: PI-3019-AB (antibody, mouse IgG2a, kappa)
heavy: EVQLVESGGGLVQPGSSLKLSCVASKFTFSNYGMNWIRQAPKKGLEWIALIYYNSNNKYYADSVKGRFTISRDNSKNTLYLEMNSLRSEDTAMYYCAKSLTGGSDYFDSWGQGVMVTVSSAKTTAPSVYPLAPVCGDTTGSSVTLGCLVKGYFPEPVTLTWNSGSLSSGVHTFPAVLQSDLYTLSSSVTVTSSTWPSQSITCNVAHPASSTKVDKKIEPRGPTIKPCPPCKCPAPNLLGGPSVFIFPPKIKDVLMISLSPIVTCVVVDVSEDDPDVQISWFVNNVEVHTAQTQTHREDYNSTLRVVSALPIQHQDWMSGKEFKCKVNNKDLPAPIERTISKPKGSVRAPQVYVLPPPEEEMTKKQVTLTCMVTDFMPEDIYVEWTNNGKTELNYKNTEPVLDSDGSYFMYSKLRVEKKNWVERNSYSCSVVHEGLHNHHTTKSFSRTPGK
light: DVQMTQSPSYLAASPGESVSISCKASKSIGTFLAWYQEKPEKTNKLLIYSGSTLQSGTPSRFSGSGSGTDFTLTIRNLEPEDFAVYYCQQHDEYPFTFGSGTKLEIKRADAAPTVSIFPPSSEQLTSGGASVVCFLNNFYPKDINVKWKIDGSERQNGVLNSWTDQDSKDSTYSMSSTLTLTKDEYERHNSYTCEATHKTSTSPIVKSFNRNEC

binding result [8]: no binding
binding result [9]: no binding
B6: PI-HX-3017 (antibody, rat IgG1, V domains shown)
VH: EVQLVESGGGLVQPGRSLKFSCSASGFTFSAYSMAWVRQAPKTGLEWVATIIYDGSSTYYRDSVKGRFTISRDNAKNTLYLQMDSLRSEDTATYYCARLGYSGHYFDYWGQGVMVTVSS
VL: DTVLTQSPALAVSLGQRVTISCQASESVSSSLHSYLHWYQQKPGQQPKLLIYRASNLESGVPARFSGSGSGTDFTLNIDPVEADDIATYFCQQSWNDPRTFGGGTKLELK
notes: Rat IgG1 hybridoma antibody; also called PI-3009 (name of the recombinant form)

binding result [8]: no binding
binding result [9]: no binding
B7: PI-HX-3001 (antibody, rat IgG2a, V domains shown)
VH: EVQLVESGGGLVKPGASLKLSCVASGFTFSDYWMNWVRQTPGKTMEWIGDIKDDGSYTNYTPSLKNRFTISRDNAKSTLYLQMNNVRSEDTGTYYCTSGGVFDYWGQGVMVTVSS
VL: EIVLTQSPTTMAASPGEMVTITCRASSSVNYMHWFQQKSGTSPKPWIYDTSKLASGVPDRFSGSGSGTSYSLTISSMEAEDAASYYCLQRSTFPPTFGAGTKLELK
notes: Rat IgG2a hybridoma antibody; also called PI-3006 (name of the recombinant form)
